Reference: patent US20150086580A1

Experiments:
[1] = target: H77c core-E1ΔHVR1E2 HCVpp (HCV E1E2 without HVR1) (Hepatitis C virus genotype 1a, isolate H77C) (UniProt P27958); experiment: binding affinity to HCVpp (method not given)
[2] = target: H77c core-E1E2 HCVpp (HCV E1E2 with HVR1) (Hepatitis C virus genotype 1a, isolate H77C); experiment: binding affinity to HCVpp (method not given)

Row | Substance | Kd [1] [nM] | Kd [2] [nM]
1 | CBH-4D (antibody) | 0.48 | 0.84
2 | CBH-4G (antibody) | 5.29 | 5.43
3 | CBH-23 (antibody) | 0.09 | 0.17
4 | CBH-5 (antibody) | 0.56 | 4
5 | CBH-7 (antibody) | 0.08 | 0.24
